Test results published in article PMC4055408, “The Transcription Factor TFII-I Promotes DNA Translesion Synthesis and Genomic Stability” (PLoS Genetics, 2014).
Blank lines part the entries; values can stand above or below the binder they belong to.

Legend:
His6-Rev7 R124A = molecular target: T1, His6-Rev7 R124A (human, UniProt Q9UI95 1-211, R124A); test: SEC; purified recombinant proteins mixed (1:1:1 molar ratios for Figure 1E) and fractionated on Superdex 200 10/300 GL; fractions on SDS-PAGE, Coomassie; settings: both partners purified
T1 construct: human Rev7 with R124A (disrupts Rev7 dimerization); The Rev7 chain of m12, written alone for the pairs that touch inside the reconstituted complexes; source: prepared as previously described
T1 sequence (Q9UI95 whole entry R124A): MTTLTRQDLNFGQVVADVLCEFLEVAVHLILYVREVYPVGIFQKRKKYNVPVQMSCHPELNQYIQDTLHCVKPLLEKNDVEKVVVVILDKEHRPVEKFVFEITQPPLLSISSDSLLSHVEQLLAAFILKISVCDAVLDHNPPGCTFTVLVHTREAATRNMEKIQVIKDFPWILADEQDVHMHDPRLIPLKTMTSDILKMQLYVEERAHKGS

[1] = molecular target: T2, Rev7 R124A–Rev3L (residues 1847–1898) complex (human, UniProt Q9UI95 1-211; O60673 1847-1898, R124A); test: as above; settings: both partners purified
T2 construct: human Rev7 with R124A (disrupts Rev7 dimerization); also called Rev7–Rev3L; source: recombinant, purified; prepared as previously described; copies: 1 + 1
T2 sequence (Q9UI95 whole entry R124A, the tested form may be a part, one chain of several): as the sequence (Q9UI95 whole entry R124A) above

[2] = molecular target: the molecule itself; test: SEC; single purified TFII-I fragments fractionated on Superdex 200; apparent molecular mass against standards; monomer or homodimer

B1: Rev3L RBM (residues 1847–1898) (domain or fragment, human, UniProt O60673 1847-1898, looked up)
chain: MLTPTPDSSPRSTSSPSQSKNGSFTPRTANILKPLMSPPSREEIMATLLDHD
notes: The Rev3L chain of m12; also called Rev3L fragment; source: recombinant, purified together with His6-Rev7 R124A; prepared as previously described
binding result (His6-Rev7 R124A): binds

B4: TFII-I^1–667 fragment (domain or fragment, human, UniProt P78347 1-667, looked up)
chain: MAQVAMSTLPVEDEESSESRMVVTFLMSALESMCKELAKSKAEVACIAVYETDVFVVGTERGRAFVNTRKDFQKDFVKYCVEEEEKAAEMHKMKSTTQANRMSVDAVEIETLRKTVEDYFCFCYGKALGKSTVVPVPYEKMLRDQSAVVVQGLPEGVAFKHPENYDLATLKWILENKAGISFIIKRPFLEPKKHVGGRVMVTDADRSILSPGGSCGPIKVKTEPTEDSGISLEMAAVTVKEESEDPDYYQYNIQAGPSETDDVDEKQPLSKPLQGSHHSSEGNEGTEMEVPAEDSTQHVPSETSEDPEVEVTIEDDDYSPPSKRPKANELPQPPVPEPANAGKRKVREFNFEKWNARITDLRKQVEELFERKYAQAIKAKGPVTIPYPLFQSHVEDLYVEGLPEGIPFRRPSTYGIPRLERILLAKERIRFVIKKHELLNSTREDLQLDKPASGVKEEWYARITKLRKMVDQLFCKKFAEALGSTEAKAVPYQKFEAHPNDLYVEGLPENIPFRSPSWYGIPRLEKIIQVGNRIKFVIKRPELLTHSTTEVTQPRTNTPVKEDWNVRITKLRKQVEEIFNLKFAQALGLTEAVKVPYPVFESNPEFLYVEGLPEGIPFRSPTWFGIPRLERIVRGSNKIKFVVKKPELVISYLPPGMASKINTKALQ
notes: source: bacteria, GST fusion, purified (glutathione-Sepharose 4B, PreScission, anion exchange, size exclusion)
stoichiometry N [2]: 2

More lines, now with the values ahead:

stoichiometry N [1]: 1
B2: Rev1 CTD (residues 1140–1251) (domain or fragment, human, UniProt Q9UBZ9 1140-1251, looked up)
chain: GLSSLQSDPAGCVRPPAPNLAGAVEFNDVKTLLREWITTISDPMEEDILQVVKYCTDLIEEKDLEKLDLVIKYMKRLMQQSVESVWNMAFDFILDNVQVVLQQTYGSTLKVT
notes: Rev1 C-terminal domain, residues 1140-1251; also called C-terminal domain (CTD) of Rev1; source: bacteria, GST fusion, purified (glutathione-Sepharose 4B, PreScission, anion exchange, size exclusion)

stoichiometry N [1]: 1
B3: TFII-I fragment (residues 350–667) containing R2-R4 (domain or fragment, human, UniProt P78347 350-667, looked up)
chain: NFEKWNARITDLRKQVEELFERKYAQAIKAKGPVTIPYPLFQSHVEDLYVEGLPEGIPFRRPSTYGIPRLERILLAKERIRFVIKKHELLNSTREDLQLDKPASGVKEEWYARITKLRKMVDQLFCKKFAEALGSTEAKAVPYQKFEAHPNDLYVEGLPENIPFRSPSWYGIPRLEKIIQVGNRIKFVIKRPELLTHSTTEVTQPRTNTPVKEDWNVRITKLRKQVEEIFNLKFAQALGLTEAVKVPYPVFESNPEFLYVEGLPEGIPFRSPTWFGIPRLERIVRGSNKIKFVVKKPELVISYLPPGMASKINTKALQ
notes: as for B4
